Reference: article PMC12162218

Molecular target: Cat1-His6 (CRISPR-associated TIR protein 1, homolog MCI0612855.1)
Assay: SEC-MALS; Cat1-His6 with NAD+ (1:10 molar ratio), no cA4; Superose 6 10/300 increase; 25 mM MES pH 6, 200 mM NaCl, 2 mM β-mercaptoethanol, 5 % glycerol

With “Cat1-His6 (CRISPR-associated TIR protein 1, homolog MCI0612855.1) (enzyme)” the stoichiometry N was 2.
